These results are taken from article PMC8276696 (2021).

Usually Kd stands for the concentration at which binding is half-saturated. High values mean a looser complex, low ones a tighter complex.

This experiment addresses wild-type monomeric SARS-CoV-2 S receptor-binding domain (RBD) (SARS-CoV-2 (Wuhan-Hu-1), UniProt P0DTC2). The experiment in a line: BLI. In general terms: Biolayer interferometry detects binding as a change in optical thickness at a sensor tip.

B1: CV30 IgG (antibody, V domains shown)
VH: QVQLVESGGGLIQPGGSLRLSCAASGVIVSSNYMSWVRQAPGKGLEWVSVIYSGGSTYYADSVKGRFTISRDNSKNTLYLQMNSLRAEDTAVYYCARDLDVSGGMDVWGQGTTVTVSS
VL: not shown
In the case of B1, binding was characterised by a dissociation constant (Kd) of 8.8 nM.
